The source of these data is US20180208678A1 (UNIVERSITY OF CHICAGO, published 2018).

The target of experiment [1] is BgaD-D, smallest isozyme of the β-galactosidase from B. circulans ATCC 31382 (Biolacta) (Bacillus circulans ATCC 31382). Description: Kd table; method not given.
Experiment [2] has the same target. Description: bead assay with purified proteins, biotinylated monobody on streptavidin beads (FIG. 3B).
Experiment [3] has the same target. In words: bead assay, purified proteins: biotinylated monobody on streptavidin-coated beads, BgaD-D titrated (0-1000 nM shown), flow cytometry, 1:1 fit [panel b]. Background: In flow cytometry, cells or beads pass a laser one at a time.
Experiment [4] concerns the target BgaD-D active site mutant E447R (Bacillus circulans ATCC 31382). In words: bead assay, purified proteins, target given as BgaD-D/ER, titrated 0-1000 nM shown, 1:1 fit [panel a].
In experiment [5] the target is BgaD-D active site mutant E447Q (Bacillus circulans ATCC 31382). Description: bead assay, purified proteins, target given as BgaD-D/EQ, titrated 0-1000 nM shown, 1:1 fit [panel a].
The target in experiment [6] is BgaD-D, smallest isozyme of the β-galactosidase from B. circulans ATCC 31382 (Biolacta) (Bacillus circulans ATCC 31382). In words: KD (nM) to BgaD-D; assay not given; the values equal those of the bead assay with purified proteins in FIG. 3B [panel c].
In experiment [7] the target is BgaD-D active site mutant E447K (Bacillus circulans ATCC 31382). Description: bead assay, purified proteins, target given as BgaD-D/EK, titrated 0-1000 nM shown, 1:1 fit [panel a].
The target of experiment [8] is BgaD-D, smallest isozyme of the β-galactosidase from B. circulans ATCC 31382 (Biolacta) (Bacillus circulans ATCC 31382). Description: bead assay, purified proteins, target given as BgaD-D/WT, titrated 0-1000 nM shown, 1:1 fit [panel a].
For experiment [9] the target is unchanged. In words: Kd table; yeast-surface display (paragraph 202 repeats it as 12±3 nM).
The target is the same in experiment [10]. In words: cell-based or functional assay.
The target is the same in experiment [11]. Description: Kd table; yeast-surface display (paragraph 202 repeats it as 600±170 nM).
Experiment [12] has as its target T1, Candida rugosa lipase 1 (CRL1) (Candida rugosa, UniProt P20261 16-549, biotinylated with NHS-LC-biotin, about 2 biotin per CRL1 molecule (binding assays)).
T1 construct: Bought purified protein
In words: yeast-surface display of the monobody, CRL1 titrated, flow cytometry, 1:1 fit [panel a]. The method, then:
Affinity of monobodies to CRL1 was determined using yeast-surface display, as described previously. Yeast cells displaying a monobody were incubated with varying concentrations of CRL1, washed with the buffer and stained with appropriate fluorescently labeled secondary detection reagents, prior to analysis on a flow cytometer (Guava EasyCyte 6/L, Millipore). KD values were determined from plots of the mean fluorescent intensity against CRL1 concentration by fitting the 1:1 binding model using SigmaPlot software (Systat Software).

The target in experiment [13] is T1, Candida rugosa lipase 1 (CRL1). Description: cell-based or functional assay.

B1: Mb(BgaD_S07) (designed binder)
chain: VSSVPTKLEVVAATPTSLLISWDAPAVTVDLYLITYGETGFSYGFPQAFTVPGSKSTATISGLKPGVDYTITVYASTVDGHSSPISINYRT
As usually defined, the Kd is the concentration at which binding is half-saturated. Low values mean a tighter complex, high ones a looser complex. For the molecule B1, the Kd in experiment [1] worked out at 488 nM.

B2: Mb(BgaD_L14) (designed binder)
chain: VSSVPTKLEVVAATPTSLLISWDASSYYGVVSYYRITYGETGGNSPVQEFTVPGYSSTATISGLKPGVDYTITVYASYYYWYTSYTKSPISINYRT
Turning to B2, the Kd in experiment [2] stood at 31 nM; in [1], 37 nM.

B3: Mb(BgaD_S13) (designed binder)
chain: VSSVPTKLEVVAATPTSLLISWDAPAVTVVFYVITYGETGVHWPGYQKFTVPGSKSTATISGLKPGVDYTITVYAQFPWYMGSPISINYRT
In experiment [1], B3 gave an equilibrium dissociation constant (Kd) of 50 nM.

B4: Mb(BgaD_L03) (designed binder)
chain: VSSVPTKLEVVAATPTSLLISWDAGDYWVYYYRITYGETGGNSPVQEFTVPGYSSTATISGLKPGVDYTITVYAGDLSFNTYYYSPISINYRT
For the molecule B4, the Kd in experiment [1] came to 76 nM.

B5: Mb(BgaD_S11) (designed binder)
chain: VSSVPTKLEVVAATPTSLLISWDAPAVTVVLYVITYGETGPGHSAWPQAFTVPGSKSTATISGLKPGVDYTITVYAYWDWDSHRYSPISINYRT
B5 registered a Kd in experiment [1] of 246 nM.

B6: Mb(BgaD_L01) (designed binder)
chain: VSSVPTKLEVVAATPTSLLISWDAMDHTPYVYYYRITYGETGGNSPVQEFTVPGYYSTATISGLKPGVDYTITVYAGDLSWNFDFYSPISINYRT
As for B6, the Kd in experiment [1] stood at 163 nM.

B7: Mb(BgaD_S10) (designed binder)
chain: VSSVPTKLEVVAATPTSLLISWDAPAVTVVFYLITYGETGASSWPGYQEFTVPGSKSTATISGLKPGVDYTITVYAQYPWDTGSPISINYRT
Take B7: the Kd in experiment [3] was determined as 13 nM; in experiment [4], 16 nM; in [5], 16 nM; in experiment [6], 13 nM; in experiment [7] it was 12 nM; in [1], 15 nM. The molecule also displayed a Kd in experiment [8] of 13 nM.

B8: Mb(BgaD_S12) (designed binder)
chain: VSSVPTKLEVVAATPTSLLISWDAPAVTVVFYIITYGETGAAVWPGHQEFTVPGSKSTATISGLKPGVDYTITVYAVGPWDYYSPISINYRT
Turning to B8, the Kd in experiment [1] turned out to be 18 nM.

B9: Mb(BgaD_S06) (designed binder)
chain: VSSVPTKLEVVAATPTSLLISWDAPAVTVVFYVITYGETGAAVWPGHQEFTVPGSKSTATISGLKPGVDYTITVYAQGGRWKSSPISINYRT
Regarding B9, the Kd in experiment [1] came to 24 nM.

B10: Mb(BgaD_L23) (designed binder)
chain: VSSVPTKLEVVAATPTSLLISWDAFDGYWYDYVSFYRITYGESGGNSPVQEFTVPSSSSTATISGLKPGVDYTITVYAYSHSQQQYLSPNSINYRT
As for B10, the Kd in experiment [3] stood at 25 nM; in experiment [4], 227 nM; in experiment [5], 46 nM; in [6], 25 nM; in experiment [7], 156 nM; in experiment [9], 12 nM. This molecule came in with a dissociation constant Kd in [8] of 25 nM. Further, the production of DP4 by BgaD-D (fold reduction) in experiment [10] was determined as 4.5 fold. The production of DP5+ by BgaD-D (fold reduction) in experiment [10] was found to be 30 fold.

B11: Mb(BgaD_L19) (designed binder)
chain: VSSVPTKLEVVAATPTSLLISWDAFDGYWYDYVSYYRITYGETGGNSPVQEFTVPSSSSTATISGLKPGVDYTITVYAYSHSQQQYLSPISINYRT
With B11, the Kd came out at 37 nM in experiment [3]; 224 nM in experiment [4]; 72 nM in experiment [5]; 173 nM in [7]; 37 nM in experiment [8]; 598 nM in experiment [11].

B12: Mb(BgaD_L22) (designed binder)
chain: VSSVPTKLEVVAATPTSLLISWDAFDGYWYDYVSYYRITYGETGGNSPVQVFTVPSSSSTATISGLKPGVDYTITVYAYSHSQLQYLSPISINYRT
Molecule B12 came in with a Kd in experiment [1] of 33 nM.

B13: Mb(BgaD_L24) (designed binder)
chain: VSSVPTKLEVVAAAPTTLLISWDAFDGYWYDYVSYYRITYGETGGNSPVQEFTVPSSSSTAIISGLKPGVDYTITVYAYHHSQQQYLSPISINYRT
In [1], B13 had a Kd of 11 nM.

B14: Mb(BgaD_L02) (designed binder)
chain: VSSVPTKLEVVAATPTSLLISWDANGWNYVKYYRITYGETGGNSPVQEFTVPGSSSTATISGLKPGVDYTITVYAYEYYSESSSSPISINYRT
Turning to B14, the Kd turned out to be 9.9 nM in experiment [3]; 11 nM in experiment [4]; 12 nM in experiment [5]; 9.9 nM in experiment [6]; 11 nM in experiment [7]; 5.7 nM in [1]. Besides, in [8], the Kd came to 9.9 nM.

B15: Mb(BgaD_S08) (designed binder)
chain: VSSVPTKLEVVAATPTSLLISWDAPAVTVDLYVITYGETGGSSWPQAFTVPGSKSTATISGLKPGVDYTITVYAHSWDHSYSPISINYRT
Consider B15, for which the Kd in experiment [1] is 214 nM.

B16: Mb(BgaD_S09) (designed binder)
chain: VSSVPTKLEVVAATPTSLLISWDAPAVTVVYYVITYGETGGNSPVQEFTVPGSKSTATISGLKPGVDYTITVYAYSDQVEYYEYFYGSPISINYRT
On to B16, for which the Kd in experiment [3] worked out at 171 nM; in [4], 157 nM; in experiment [5] it was 239 nM; in experiment [6], 171 nM; in experiment [7] it was 178 nM; in experiment [1], 184 nM. Moreover, the Kd in [8] was determined as 171 nM.

B17: Mb(BgaD_L04) (designed binder)
chain: VSSVPTKLEVVAATPTSLLISWDAYEHWSGVYYYRITYGETGGNSPVQEFTVPGSSSTATISGLKPGVDYTITVYAYSYSYASMYSPISINYRT
B17 gave a Kd in [1] of 137 nM.

B18: Mb(CRL_L24) (designed binder)
chain: VSSVPTKLEVVAATPTSLLISWDASSSSVSYYRITYGETGGNSPVQEFTVPGSSSTATISGLKPGVDYTITVYAFGHYYGSWVWSPISINYRT
notes: also called Mb(L24)
Consider B18, for which the Kd in experiment [12] amounted to 9.3 nM.

B19: Mb(CRL_L23) (designed binder)
chain: VSSVPTKLEVVAATPTSLLISWDASSSSVSYYRITYGETGGNSPVQEFTVPGSSSTATISGLKPGVDYTITVYAFGHYYGSWAWSPISINYRT
notes: Mb(L23) and Mb(L24) differ by one residue and could be 116/117 in either order; also called Mb(L23)
B19 displayed a dissociation constant Kd in [12] of 11 nM.

B20: Mb(BgaD_L18) (designed binder)
chain: VSSVPTKLEVVAATPTSLLISWDAESWYWPYYVSYYRITYGETGGNSPVQEFTVPSSSSTATISGLKPGVDYTITVYAFEHHEQRYYSPISINYRT
B20 had a Kd in [1] of 147 nM.

B21: Mb(CRL_L18) (designed binder)
chain: VSSVPTKLEVVAATPTSLLISWDAMQYSEYDVTYYRITYGETGGNSPVQEFTVPGSSSTATISGLKPGVDYTITVYAVWQYMHYMHSYSPISINYRT
notes: 109 is Mb(S19)); also called Mb(L18)
In experiment [12], B21 yielded a Kd of 54 nM. For the same molecule, in experiment [13], the “CRL1 activity toward C8 triacylglyceride (fold reduction relative to CRL1 alone)” value was 11 fold, the “CRL1 activity toward C10 triacylglyceride (fold reduction relative to CRL1 alone)” value was 102 fold and the “CRL1 activity toward C12 triacylglyceride (fold reduction relative to CRL1 alone)” value amounted to 4.5 fold.

B22: 1Mb39 S (designed binder)
chain: VSSVPTKLEVVAATPTSLLISWDAPAVTVDFYLITYGETGGPSWPQAFAVPGSKSTATISGLKPGVDYTITVYASSSSRISSSSSKPISINYRT
In experiment [1], B22 displayed a Kd of 476 nM.

B23: Mb(BgaD_L05) (designed binder)
chain: VSSVPTKLEVVAATPTSLLISWDAYKSLGGVDYYRITYGETGGNSPVQEFTVPGSSSTATISGLKPGVDYTITVYAGYLWYPYGEWSPISINYRT
In turn, B23 came in with a Kd in experiment [1] of 515 nM.
